Bridges are numbered along the chain shown (N, C = ends). Primed or numbered codes have the meaning given here. Side-chain parts run from the residue outwards. [ ]: non-standard residue; d: D form. The star is where a group is joined. Trp(5-OMe) = COc1ccc2[nH]cc(C[C@H](N)C(=O)O)c2c1; Igl = N[C@H](C(=O)O)C1Cc2ccccc2C1; Pen = CC(C)(S)[C@H](N)C(=O)O; DBCO′ = dibenzocyclooctyne; PEG4′ = not defined here; Acm = CC(=O)NC*

B1: 5% P2 nanoparticle (other)
peptide: Ac-DPCTWEVWGRECLQGGK-NH2
modifications: disulfide 3-12; not fully specified (residue 17)
notes: also called P2 5% Ligand Density NP; parent P2 conjugated nanoparticle (5%)
B2: 5% P2-2/55 nanoparticle (other)
peptide: DAXTWEVWGREXLQGGK
modifications: not fully specified; N-terminal acetyl; penicillamine at 3 and 12, disulfide; Lys17(DBCO) clicked to azide PLA-PEG nanoparticle at 5%; C-terminal amide
notes: also called P2-2/55 [DA PenPen]; NP; Ala2-Pen
B3: 1% P2-55 nanoparticle (other)
peptide: DPXTWEVWGREXLQGGK
modifications: not fully specified; N-terminal acetyl; penicillamine at 3 and 12, disulfide; Lys17(PEG4-DBCO) clicked to azide PLA-PEG nanoparticle at 1%; C-terminal amide
notes: also called P2-55 1% Ligand Density NP
B4: EGFf-7 (peptide)
peptide: H-C(Acm)NCVVGYIGE-NH2
SMILES: CC[C@H](C)[C@H](NC(=O)[C@H](Cc1ccc(O)cc1)NC(=O)CNC(=O)[C@@H](NC(=O)[C@@H](NC(=O)[C@H](CS)NC(=O)[C@H](CC(N)=O)NC(=O)[C@@H](N)CSCNC(C)=O)C(C)C)C(C)C)C(=O)NCC(=O)N[C@@H](CCC(=O)O)C(N)=O
B5: EGFf-6 (peptide)
peptide: H-LDKYACNC(Acm)VV-NH2
SMILES: CC(=O)NCSC[C@H](NC(=O)[C@H](CC(N)=O)NC(=O)[C@H](CS)NC(=O)[C@H](C)NC(=O)[C@H](Cc1ccc(O)cc1)NC(=O)[C@H](CCCCN)NC(=O)[C@H](CC(=O)O)NC(=O)[C@@H](N)CC(C)C)C(=O)N[C@H](C(=O)N[C@H](C(N)=O)C(C)C)C(C)C
B6: 5% P2-55 nanoparticle (other)
peptide: DPXTWEVWGREXLQGGK
modifications: not fully specified; N-terminal acetyl; penicillamine at 3 and 12, disulfide; Lys17(PEG4-DBCO) clicked to azide PLA-PEG nanoparticle at 5%; C-terminal amide
notes: also called P2-55 5% Ligand Density NP; Pen analog NP
B7: P2-55 (Ac-DPPen…enLQGGK(PEG4-DBCO)-CONH2) (peptide)
peptide: DPXTWEVWGREXLQGGK
modifications: N-terminal acetyl; penicillamine at 3 and 12, disulfide; Lys17(PEG4-DBCO); C-terminal amide
notes: also called Pen analog
B8: P2-2/55 (Ac-DAPen…enLQGGK(DBCO)-CONH2) (peptide)
peptide: DAXTWEVWGREXLQGGK
modifications: N-terminal acetyl; penicillamine at 3 and 12, disulfide; Lys17(DBCO); C-terminal amide
notes: also called DA PenPen
B9: P2-2/55/102 (Ac-DAPenT(2Ind)GEV(5MeO)WGREPenLQGGK(DBCO)-CONH2) (peptide)
peptide: Ac-DA[Pen]T[Igl]EV[Trp(5-OMe)]GRE[Pen]LQGGK(DBCO′)-NH2
modifications: disulfide 3-12
notes: also called DA Aro PenPen; triple mutant
B10: Peptide 1 (peptide)
peptide: Ac-SECFPLAPDWLSCIL-NH2
modifications: disulfide 3-13 (inferred)
notes: named singly only on the sheet; also called free literature peptide without the GGK(DBCO) tail

For one test, the target named is T1, EGF bound EGFR (rhEGFR-Fc with recombinant human EGF pre-injected in SPR or 50 nM EGF present in ELISA) (human, UniProt P00533 25-645; P01133 971-1023).
T1 construct: Complex of m1 and m5 as target; also called EGFR in the presence of EGF; With EGF; not shown: Fc tag
Nature of the test: P2 competition ELISA, 5% nanoparticle conjugate. A general note: ELISA stands for enzyme-linked immunosorbent assay.
By IC50 is commonly meant the concentration needed to halve the response being measured. Consider B1, for which the IC50 came to 6 µg/mL.

Take B2: the IC50 stood at 6.3 µg/mL and the “Rel. Diff. (against P2 NP)” value stood at 1.05 ratio.

In a further test the target is T1, EGF bound EGFR (rhEGFR-Fc with …). Nature of the test: P2 competition ELISA, 1% ligand density NP.
On to Ac-DPCTWEVWGRECLQGGK-NH2 (other, disulfide 3-12; not fully specified (residue 17), also called P2 1% Ligand Density NP) [1% P2 nanoparticle], for which the IC50 amounted to 81 µg/mL.

Regarding B3, the IC50 turned out to be 135 µg/mL and the “Rel IC50 (against P2 NP)” value was found to be 1.67 ratio.

As to Ac-DACTWEVWGRECLQGGK-NH2 (other, disulfide 3-12; not fully specified (residue 17), also called P2-2 1% Ligand Density NP) [1% P2-2 nanoparticle], the IC50 is 17 µg/mL and the “Rel IC50 (against P2 NP)” value worked out at 0.2 ratio.

With Ac-DPCT[Igl]EV[Trp(5-OMe)]GRECLQGGK([PEG4′-DBCO′])-NH2 (other, disulfide 3-12; not fully specified) [1% P2-102 nanoparticle], the IC50 was 7.6 µg/mL and the “Rel IC50 (against P2 NP)” value turned out to be 0.09 ratio.

For a further test, the target named is T2, Fc tagged recombinant human EGFR (rhEGFR-Fc, R&D systems, Cat#344-ER-050) (human, UniProt P00533 25-645).
T2 construct: Bought protein; also called apo-EGFR; not shown: Fc tag
The test is described as follows: SPR. Background: SPR reads the build-up and loss of mass on a sensor chip optically.
With Ac-CFPAAPDWLSCGGK(DBCO′)-NH2 (disulfide 1-11 (inferred)) [P1-3-6], the binding result is “no binding”.

In the case of Ac-CFPAAPDWLSCGGK(DBCO′)-NH2 (disulfide 1-11 (inferred)) [P1-3-7], the binding result was “no binding”.

Take {DBCO′}-SECFPAAPDWLSCIL-NH2 (disulfide 3-13 (inferred), also called Alternate DBCO placement) [P1-3-14]: the binding result was “no binding”.

The target of a further test is EGF bound EGFR (rhEGFR-Fc with recombinant human EGF pre-injected in SPR or 50 nM EGF present in ELISA) (human) (UniProt P00533). The test is described as follows: P2 competition ELISA, 5% nanoparticle conjugate.
Turning to Ac-DP[Pen]T[Igl]EV[Trp(5-OMe)]GRE[Pen]LQGGK(DBCO′)-NH2 (disulfide 3-12; not fully specified) [5% P2-55/102 nanoparticle], the IC50 came out at 2.2 µg/mL and the Rel. Diff. (against P2 NP) was 0.37.

For Ac-DACT[Igl]EV[Trp(5-OMe)]GRECLQGGK(DBCO′)-NH2 (disulfide 3-12; not fully specified) [5% P2-2/102 nanoparticle], the IC50 was 3.7 µg/mL and the Rel. Diff. (against P2 NP) was 0.62.

Consider Ac-DA[Pen]T[Igl]EV[Trp(5-OMe)]GRE[Pen]LQGGK(DBCO′)-NH2 (disulfide 3-12; not fully specified) [5% P2-2/55/102 nanoparticle], for which the IC50 turned out to be 1.6 µg/mL and the Rel. Diff. (against P2 NP) came out at 0.27.

Another test concerns the target T2, Fc tagged recombinant human EGFR …. The test is described as follows: screening ELISA, peptide 100 µM against 0.7 nM biotin-EGF on coated rhEGFR.
On to H-RCQYRDLKWW-NH2 [EGFf-9], for which the “% inhibition of EGF” value was 63.8%.

Take H-NSDSECPLSH-NH2 [EGFf-1]: the “% inhibition of EGF” value was under 20%.

With B4, the “% inhibition of EGF” value was under 20%.

Take B5: the “% inhibition of EGF” value is under 20%.

H-YRDLKWWELR-NH2 [EGFf-10]: the “% inhibition of EGF” value was under 20%.

As to H-GYIGERCQYR-NH2 [EGFf-8], the “% inhibition of EGF” value was under 20%.

A further test concerns the target T1, EGF bound EGFR (rhEGFR-Fc with …). The test is described as follows: P2 competition ELISA, 5% ligand density NP.
As to B1, the IC50 was 4.3 µg/mL.

For B6, the IC50 was 3.4 µg/mL and the “Rel IC50 (against P2 NP)” value worked out at 0.79 ratio.

For the next test the target is unchanged. Nature of the test: SPR, peptide over captured rhEGFR-Fc after rhEGF pre-injection. How it is done: (§1) Surface plasmon resonance (SPR) binding studies were carried out on a Biacore T200 instrument (GE Healthcare). […] The contact time and resulting amount of rhEGFR-Fc capture was varied based on the nature of the analyte, namely whether it was a peptide or nanoparticle.
(§2) Peptide binding assays were carried out in 10 mM PBS buffer supplemented with 0.05% surfactant P20 and 5% DMSO by volume, at 25° C. Peptides were injected over the rhEGFR-Fc surface for 60 s, followed by dissociation (buffer injection) for 60 s and regeneration with a 10 s pulse of 3M MgCl₂. A fresh rhEGFR-Fc surface was generated for each concentration of each peptide tested. Peptide binding data was analyzed by fitting to a 1:1 Langmuir kinetic model to obtain the on-rate (kₐ), off-rate (kd) and/or equilibrium binding constant (KD) of the interaction.
In general, Kd refers to the constant that tells how readily two partners part at equilibrium. As for B7, the Kd was 69 nM.

Take B8: the Kd stood at 97 nM.

For the molecule Ac-DP[Pen]T[Igl]EV[Trp(5-OMe)]GRE[Pen]LQGGK(DBCO′)-NH2 (disulfide 3-12, also called Aro PenPen) [P2-55/102 (Ac-DPPenT(2Ind)GEV(5MeO)WGREPenLQGGK(DBCO)-CONH2)], the Kd was found to be 75.4 nM.

Regarding B9, the Kd worked out at 33.4 nM.

As to Ac-DACT[Igl]EV[Trp(5-OMe)]GRECLQGGK(DBCO′)-NH2 (disulfide 3-12, also called DA Aro) [P2-2/102 (Ac-DACT(2Ind)GEV(5MeO)WGRECLQGGK(DBCO)-CONH2)], the Kd was 23.3 nM.

Turning to Ac-DPCT[Igl]EV[Trp(5-OMe)]GRECLQGGK(PEG4‑DBCO)-NH2 (disulfide 3-12, also called aromatic analog) [P2-102 (Ac-DPCT(2Ind)GEV(5MeO)WGRECLQGGK(PEG4-DBCO)-CONH2)], the Kd amounted to 32 nM.

The target is the same in the next test. Nature of the test: P2 competition ELISA: rhEGFR on the plate, 1 nM P2-Biotin dimer as tracer, 50 nM EGF; concentration on a ligand molar basis. The text has this:
An additional assay was developed to provide an orthogonal assay to SPR during the evaluation of the P₂ peptide analogs and nanoparticle conjugates.
Turning to B1, the “IC50 (read off the curve)” value is about 9 nM.

As for Ac-DPCTWEVWGRECLQGGK-NH2 (other, disulfide 3-12; not fully specified (residue 17), also called P2 1% Ligand Density NP) [1% P2 nanoparticle], the “IC50 (read off the curve)” value was about 30 nM.

The target of another test is T2, Fc tagged recombinant human EGFR …. The test is described as follows: SPR, peptide over captured rhEGFR-Fc, without EGF. How it is done:
as §1, §2
The two aromatic mutations P₂₋₉₈ and P₂₋₁₀₁ were combined into one peptide (P₂₋₁₀₂).
For the molecule B7, the Kd was 74 nM.

As for B8, the dissociation constant (Kd) stood at 137 nM.

With Ac-DP[Pen]T[Igl]EV[Trp(5-OMe)]GRE[Pen]LQGGK(DBCO′)-NH2 (disulfide 3-12, also called Aro PenPen) [P2-55/102 (Ac-DPPenT(2Ind)GEV(5MeO)WGREPenLQGGK(DBCO)-CONH2)], the Kd came out at 72 nM.

With B9, the Kd came to 53 nM.

In the case of Ac-DACT[Igl]EV[Trp(5-OMe)]GRECLQGGK(DBCO′)-NH2 (disulfide 3-12, also called DA Aro) [P2-2/102 (Ac-DACT(2Ind)GEV(5MeO)WGRECLQGGK(DBCO)-CONH2)], the Kd is 23.8 nM.

For the molecule Ac-DPCT[Igl]EV[Trp(5-OMe)]GRECLQGGK(PEG4‑DBCO)-NH2 (disulfide 3-12, also called aromatic analog) [P2-102 (Ac-DPCT(2Ind)GEV(5MeO)WGRECLQGGK(PEG4-DBCO)-CONH2)], the Kd is 38 nM.

The target is the same in the next test. Nature of the test: SPR, response against peptide concentration, rhEGFR-Fc captured. How it is done: as §1, §2
All of the peptides were synthesized and evaluated for EGFR binding using SPR (Table 7). […] FIGS. 8A and 8B show a summary of the SPR binding data for the peptides.
On to Ac-SGCLDALWQCVY-NH2 (disulfide 3-10 (inferred), named singly only on the sheet) [Peptide 4], for which the binding result is “binds”.

As to Ac-MFCFRWYAGWSCVS-NH2 (disulfide 3-12 (inferred), named singly only on the sheet) [Peptide 8], the binding result is given as “binds”.

For B10, the binding result is on record as “binds”.
